In US20240132589A1 (ONCORESPONSE, published 2024):
Blank lines part the entries; values can stand above or below the binder they belong to.

Key:
Assay in all cases: flow cytometry, transiently transfected HEK293-6E cells
[1] = molecular target: T1, Human LILRA1 on transiently transfected HEK293-6E cells (human, UniProt O75019 17-489)
T1 construct: whole, on cells; also called hLILRA1

[2] = molecular target: T2, Human LILRA2 on transiently transfected HEK293-6E cells (human, UniProt Q8N149 24-483)
T2 construct: whole, on cells; also called hLILRA2
T2 sequence (Q8N149 24-483): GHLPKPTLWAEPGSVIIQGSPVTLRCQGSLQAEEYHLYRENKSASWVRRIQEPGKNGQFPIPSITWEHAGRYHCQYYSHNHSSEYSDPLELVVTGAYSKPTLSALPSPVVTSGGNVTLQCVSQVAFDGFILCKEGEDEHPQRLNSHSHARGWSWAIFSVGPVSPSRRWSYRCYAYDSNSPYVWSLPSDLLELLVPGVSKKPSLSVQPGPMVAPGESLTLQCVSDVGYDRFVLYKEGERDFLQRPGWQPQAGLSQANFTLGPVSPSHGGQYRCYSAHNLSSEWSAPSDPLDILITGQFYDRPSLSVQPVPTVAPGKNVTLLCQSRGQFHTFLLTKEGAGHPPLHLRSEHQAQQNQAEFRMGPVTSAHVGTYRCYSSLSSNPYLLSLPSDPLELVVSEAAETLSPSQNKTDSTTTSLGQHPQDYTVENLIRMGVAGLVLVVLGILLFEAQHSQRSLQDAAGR

[3] = molecular target: T3, Human LILRA4 on transiently transfected HEK293-6E cells (human, UniProt P59901 24-499)
T3 construct: whole, on cells; also called hLILRA4
T3 sequence (P59901 24-499): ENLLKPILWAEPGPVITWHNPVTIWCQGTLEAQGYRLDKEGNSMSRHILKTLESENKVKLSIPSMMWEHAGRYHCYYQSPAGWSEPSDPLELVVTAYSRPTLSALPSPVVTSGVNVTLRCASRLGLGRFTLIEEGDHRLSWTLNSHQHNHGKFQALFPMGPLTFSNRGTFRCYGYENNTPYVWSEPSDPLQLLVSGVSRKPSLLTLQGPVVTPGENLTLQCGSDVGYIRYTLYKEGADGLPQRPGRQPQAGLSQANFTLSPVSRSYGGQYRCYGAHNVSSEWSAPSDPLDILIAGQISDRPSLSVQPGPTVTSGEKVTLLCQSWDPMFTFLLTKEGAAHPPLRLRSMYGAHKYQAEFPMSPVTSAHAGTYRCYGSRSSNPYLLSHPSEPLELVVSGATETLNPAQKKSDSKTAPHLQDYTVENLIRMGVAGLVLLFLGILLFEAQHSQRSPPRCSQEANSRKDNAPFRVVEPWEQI

[4] = molecular target: T4, Human LILRA5 on transiently transfected HEK293-6E cells (human, UniProt A6NI73 42-299)
T4 construct: whole, on cells; also called hLILRA5
T4 sequence (A6NI73 42-299): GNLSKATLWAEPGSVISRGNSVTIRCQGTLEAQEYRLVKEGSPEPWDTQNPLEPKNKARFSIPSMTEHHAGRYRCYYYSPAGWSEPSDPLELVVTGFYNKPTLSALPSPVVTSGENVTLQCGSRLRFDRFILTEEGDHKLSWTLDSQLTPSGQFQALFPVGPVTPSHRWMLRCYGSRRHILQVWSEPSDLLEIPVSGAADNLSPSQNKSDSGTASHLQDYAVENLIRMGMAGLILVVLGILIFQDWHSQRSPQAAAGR

[5] = molecular target: T5, Human LILRA6 on transiently transfected HEK293-6E cells (human, UniProt Q6PI73 24-481)
T5 construct: whole, on cells; also called hLILRA6
T5 sequence (Q6PI73 24-481): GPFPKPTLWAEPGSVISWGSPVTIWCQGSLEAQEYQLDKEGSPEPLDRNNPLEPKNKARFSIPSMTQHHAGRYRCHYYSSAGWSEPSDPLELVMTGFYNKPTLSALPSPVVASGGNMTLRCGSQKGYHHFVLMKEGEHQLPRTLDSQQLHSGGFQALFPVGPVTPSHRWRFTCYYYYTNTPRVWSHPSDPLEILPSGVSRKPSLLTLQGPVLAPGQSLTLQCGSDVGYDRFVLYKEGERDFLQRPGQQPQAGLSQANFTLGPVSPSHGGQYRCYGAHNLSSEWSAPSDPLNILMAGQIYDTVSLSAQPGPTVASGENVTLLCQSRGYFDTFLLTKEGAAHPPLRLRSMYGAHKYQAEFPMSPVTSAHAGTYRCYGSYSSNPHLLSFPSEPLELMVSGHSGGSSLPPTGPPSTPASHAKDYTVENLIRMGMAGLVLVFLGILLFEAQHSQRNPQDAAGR

[6] = molecular target: T6, Human LILRB1 on transiently transfected HEK293-6E cells (human, UniProt Q8NHL6 24-650)
T6 construct: whole, on cells; also called hLILRB1
T6 sequence (Q8NHL6 24-650): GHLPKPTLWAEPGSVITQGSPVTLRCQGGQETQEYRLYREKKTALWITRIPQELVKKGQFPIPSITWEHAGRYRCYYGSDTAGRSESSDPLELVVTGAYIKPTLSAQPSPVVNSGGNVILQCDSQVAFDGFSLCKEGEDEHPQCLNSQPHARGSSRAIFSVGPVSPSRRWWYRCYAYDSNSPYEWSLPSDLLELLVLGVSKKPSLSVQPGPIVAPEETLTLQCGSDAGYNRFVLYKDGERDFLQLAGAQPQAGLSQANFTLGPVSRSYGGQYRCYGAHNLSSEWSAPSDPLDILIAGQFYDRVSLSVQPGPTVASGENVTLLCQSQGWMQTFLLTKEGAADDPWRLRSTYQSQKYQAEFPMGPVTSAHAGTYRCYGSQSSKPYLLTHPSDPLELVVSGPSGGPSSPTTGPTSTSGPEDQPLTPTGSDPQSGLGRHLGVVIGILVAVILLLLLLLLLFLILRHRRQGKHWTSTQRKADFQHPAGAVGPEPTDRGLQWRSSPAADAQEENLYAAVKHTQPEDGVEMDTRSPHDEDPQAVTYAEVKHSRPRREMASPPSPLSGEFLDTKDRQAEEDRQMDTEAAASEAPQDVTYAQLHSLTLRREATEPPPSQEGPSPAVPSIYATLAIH

[7] = molecular target: T7, Human LILRB3 on transiently transfected HEK293-6E cells (human, UniProt O75022 24-631)
T7 construct: whole, on cells; also called hLILRB3

[8] = molecular target: T8, Human LILRB4 on transiently transfected HEK293-6E cells (human, UniProt Q8NHJ6 22-448)
T8 construct: whole, on cells; also called hLILRB4

[9] = molecular target: T9, Human LILRB5 on transiently transfected HEK293-6E cells (human, UniProt O75023 24-590)
T9 construct: whole, on cells; also called hLILRB5
T9 sequence (O75023 24-590): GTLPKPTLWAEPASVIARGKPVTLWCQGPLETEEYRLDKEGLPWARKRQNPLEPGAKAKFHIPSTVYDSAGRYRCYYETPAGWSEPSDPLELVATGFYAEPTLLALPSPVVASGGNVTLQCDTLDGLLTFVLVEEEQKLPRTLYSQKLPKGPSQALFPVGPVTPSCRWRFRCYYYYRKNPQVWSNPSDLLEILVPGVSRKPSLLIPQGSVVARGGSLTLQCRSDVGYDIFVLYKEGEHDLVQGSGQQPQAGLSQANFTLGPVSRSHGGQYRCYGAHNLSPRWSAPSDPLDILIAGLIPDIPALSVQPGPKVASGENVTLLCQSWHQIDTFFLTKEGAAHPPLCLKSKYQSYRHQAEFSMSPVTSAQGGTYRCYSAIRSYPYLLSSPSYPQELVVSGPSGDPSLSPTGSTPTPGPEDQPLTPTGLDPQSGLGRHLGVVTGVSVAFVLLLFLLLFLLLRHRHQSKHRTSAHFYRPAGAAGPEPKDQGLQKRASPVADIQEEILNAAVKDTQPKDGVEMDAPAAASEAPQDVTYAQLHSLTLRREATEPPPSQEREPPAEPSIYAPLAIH

[10] = molecular target: T10, Human LILRB2 on transiently transfected HEK293-6E cells (human, UniProt Q8N423 22-597)
T10 construct: whole, on cells; also called hLILRB2
T10 sequence (Q8N423 22-597): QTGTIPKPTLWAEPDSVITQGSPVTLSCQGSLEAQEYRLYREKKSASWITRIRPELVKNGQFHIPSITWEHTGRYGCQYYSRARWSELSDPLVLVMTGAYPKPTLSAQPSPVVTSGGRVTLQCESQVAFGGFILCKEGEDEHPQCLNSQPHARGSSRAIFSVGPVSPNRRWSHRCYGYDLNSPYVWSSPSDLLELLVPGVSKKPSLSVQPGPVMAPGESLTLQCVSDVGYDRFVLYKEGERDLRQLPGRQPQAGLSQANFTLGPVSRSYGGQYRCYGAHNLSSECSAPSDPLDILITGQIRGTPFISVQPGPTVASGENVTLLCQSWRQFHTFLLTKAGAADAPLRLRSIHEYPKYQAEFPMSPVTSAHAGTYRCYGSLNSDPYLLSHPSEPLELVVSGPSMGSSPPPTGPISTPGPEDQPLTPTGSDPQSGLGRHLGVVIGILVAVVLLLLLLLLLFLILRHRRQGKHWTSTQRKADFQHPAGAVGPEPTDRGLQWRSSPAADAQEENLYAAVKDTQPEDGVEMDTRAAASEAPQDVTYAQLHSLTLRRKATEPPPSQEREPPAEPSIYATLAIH
Protocol: (§1) To determine that the anti-LILRB2 antibodies specifically bind to LILRB2 and not other LILRB and LILRA family members, a cross-reactivity assay was performed. Cross-reactivity of the LILRB2 antibodies to other LILRB proteins was assessed by antibody binding to transiently transfected HEK293-6E cells, measured by flow cytometry. Binding was evaluated to HEK293-6E cells transiently transfected with human LILRB-1, -2, -3, -4, and 5 plasmids (Origene, Nos. RC219949, RC217935, RC211228, RC220932, RC206516) or to cells transiently transfected with human LILRA-1, -2, -4, -5, and -6 plasmids (Origene, Nos. RC210808, RC205626, RC220452, RC212310 RC212965). […] Murine primary antibodies to LILRA and LILRB targets and corresponding isotype controls were used to confirm specific binding of all targets tested (R&D Systems) while an AF647 F(ab′)₂ fragment goat anti-mouse antibody (Jackson ImmunoResearch, No. 115-606-062) was used for the detection of bound positive control antibodies. No binding of B2A-IgG4 or B2A-IgG1 to LILRB-1, -3, -4, or -5 was observed, and no binding of either antibody to LILRA-1, -2, -4, -5, or -6 was observed, confirming specificity of these antibodies.
(§2) Select humanized variant antibodies were tested for their ability to bind other LILRB or LILRA family members, using the method and commercially available positive control antibodies of Example 5.

[11] = molecular target: T1, Human LILRA1 on transiently transfected …; remark: listed apart in the source
Protocol: as §1, §2

[12] = molecular target: T2, Human LILRA2 on transiently transfected …; remark: listed apart in the source
Protocol: as §1, §2

[13] = molecular target: T3, Human LILRA4 on transiently transfected …; remark: listed apart in the source
Protocol: as §1, §2

[14] = molecular target: T4, Human LILRA5 on transiently transfected …; remark: listed apart in the source
Protocol: as §1, §2

[15] = molecular target: T5, Human LILRA6 on transiently transfected …; remark: listed apart in the source
Protocol: as §1, §2

[16] = molecular target: T6, Human LILRB1 on transiently transfected …; remark: listed apart in the source
Protocol: as §1, §2

[17] = molecular target: T7, Human LILRB3 on transiently transfected …; remark: listed apart in the source
Protocol: as §1, §2

[18] = molecular target: T8, Human LILRB4 on transiently transfected …; remark: listed apart in the source
Protocol: as §1, §2

[19] = molecular target: T9, Human LILRB5 on transiently transfected …; remark: listed apart in the source
Protocol: as §1, §2

[20] = molecular target: T10, Human LILRB2 on transiently transfected …; remark: listed apart in the source
Protocol: as §1

T1 sequence (O75019 17-489): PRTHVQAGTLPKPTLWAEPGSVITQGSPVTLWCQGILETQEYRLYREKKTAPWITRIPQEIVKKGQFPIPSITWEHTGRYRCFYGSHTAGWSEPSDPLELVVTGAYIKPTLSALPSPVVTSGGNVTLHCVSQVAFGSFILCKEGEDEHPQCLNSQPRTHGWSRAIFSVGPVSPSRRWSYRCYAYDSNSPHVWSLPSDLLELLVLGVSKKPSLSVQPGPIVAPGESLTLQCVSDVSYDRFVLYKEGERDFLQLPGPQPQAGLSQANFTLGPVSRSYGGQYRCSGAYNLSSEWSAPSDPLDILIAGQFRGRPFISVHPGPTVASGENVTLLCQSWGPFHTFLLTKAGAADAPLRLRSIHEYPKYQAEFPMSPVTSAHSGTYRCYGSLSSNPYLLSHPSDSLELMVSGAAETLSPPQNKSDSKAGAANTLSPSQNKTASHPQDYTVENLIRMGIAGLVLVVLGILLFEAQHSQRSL

binding result [1]: no binding
binding result [2]: no binding
binding result [3]: no binding
binding result [4]: no binding
binding result [5]: no binding
binding result [6]: no binding
binding result [7]: no binding
binding result [8]: no binding
binding result [9]: no binding
Bmax (MFI) [10]: 10300 MFI
Bmax (MFI) [11]: 855 MFI
Bmax (MFI) [12]: 36.1 MFI
BMAX [gMFI] [13]: 106 gMFI
Bmax (MFI) [14]: 123 MFI
Bmax (MFI) [15]: 219 MFI
Bmax (MFI) [16]: 42.3 MFI
Bmax (MFI) [17]: 159 MFI
Bmax (MFI) [18]: 40.5 MFI
Bmax (MFI) [19]: 153 MFI
B1: B2H1-52 (antibody, V domains shown)
VH: EVQLLESGGGLVQPGTSLTLSCAASGFSLSTYAMSWVRQAPGKGLEWIGWIYNDGSTYYAAWAKGRFTISKDTSKTTLYLQITSLRAEDTATYFCAREGDYIGYFNIWGQGTLVTVSS
VL: DVVMTQSPSSVSASLGDRVTITCQASQSIGSNLAWYQQKPGQAPKLLIYAAATLASGVPSRFKGSGSGTDFTLTITSLQPADFATYYCQSYVSGSSDVAFGGGTKVEIK
notes: Humanized variant, human IgG1 / kappa

binding result [1]: no binding
binding result [2]: no binding
binding result [3]: no binding
binding result [4]: no binding
binding result [5]: no binding
binding result [6]: no binding
binding result [7]: no binding
binding result [8]: no binding
binding result [9]: no binding
Bmax (MFI) [10]: 11000 MFI
Bmax (MFI) [11]: 776 MFI
Bmax (MFI) [12]: 36.1 MFI
BMAX [gMFI] [13]: 108 gMFI
Bmax (MFI) [14]: 124 MFI
Bmax (MFI) [15]: 210 MFI
Bmax (MFI) [16]: 39.8 MFI
Bmax (MFI) [17]: 142 MFI
Bmax (MFI) [18]: 38 MFI
Bmax (MFI) [19]: 147 MFI
B2: B2H1-11 (antibody, V domains shown)
VH: QVQLEESGGRVVQPGRSLRLSCAASGFSLSTYAMSWVRQAPGKGLEWIGWIYNDGSTYYAAWAKGRFTISKDTSKTTVFLQMNSLKPDDTATYFCAREGDYIGYFNIWGQGTLVTVSS
VL: DIQMTQSPSSLSASVGDRVTITCQASQSIGSNLAWYQLKPGQRPKLLIYAAATLASGVPSRFKGSGSGTDFTLTISSLQSEDAATYYCQSYVSGSSDVAFGGGTEVVVK
notes: as for B1

binding result [1]: no binding
binding result [2]: no binding
binding result [3]: no binding
binding result [4]: no binding
binding result [5]: no binding
binding result [6]: no binding
binding result [7]: no binding
binding result [8]: no binding
binding result [9]: no binding
Bmax (MFI) [10]: 10300 MFI
Bmax (MFI) [11]: 766 MFI
Bmax (MFI) [12]: 33.6 MFI
BMAX [gMFI] [13]: 103 gMFI
Bmax (MFI) [14]: 122 MFI
Bmax (MFI) [15]: 202 MFI
Bmax (MFI) [16]: 41.3 MFI
Bmax (MFI) [17]: 146 MFI
Bmax (MFI) [18]: 38.5 MFI
Bmax (MFI) [19]: 145 MFI
B3: B2H1-35 (antibody, V domains shown)
VH: QVQLVESGGRVVQPGTPLRLSCAASGFSLSTYAMSWVRQAPGKGLEWVAWIYNDGSTYYAAWAKGRFTISRDTSKNTLYLQTNSLKPDDTAVYYCAREGDYIGYFNIWGQGTLVTVSS
VL: DVVMTQTPSSVSAALGGTVTIKCQASQSIGSNLAWYQLKPGQRPKLLIYAAATLASGGSSRFKGSGSGTDFTLTISSLEPADAATYYCQSYVSGSSDVAFGGGTEVVVK
notes: as for B1

MFI [20]: 9630 MFI
B4: B2Comp1 (antibody, human IgG4 S228P, lambda, V domains shown)
VH: EVQLQQWGAGLLKPSETLSLTCAVYGGSFSGYYWSWIRQPPGKGLEWIGEINHAGSTNYNPSLKSRVTISVDTSKNQFSLKLSSVTAADTAVYYCARLPTRWVTTRYFDLWGRGTLVTVSS
VL: ESVLTQPPSVSGAPGQRVTISCTGSSSNIGAGYDVHWYQQLPGTAPKLLIYGDSNRPSGVPDRFSVSKSGASASLAITGLQAEDEADYYCQSFDNSLSAYVFGGGTQLTVLG
notes: Benchmark antibody, IgG4 heavy chain and lambda light chain; biotin-conjugated when used as the labelled antibody in binning; also called MK-4830 (as designated in WO 2021/138079 A1); αLILRB2B2Comp1
